The values that follow come from the nanobody polyreactivity screen of Harvey et al. (2022).

A short description of this data set: yeast display, Sf9 membrane polyspecificity reagent, FACS + sequencing; frameworks hold sequencing errors. In outline: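 After 36–48 hours of galactose induction, yeast (Saccharomyces cerevisiae BJ5465) displaying a synthetic nanobody library were stained at 4 °C for 1 hour with 10% biotinylated, detergent-solubilized Sf9 membrane reagent. Streptavidin microbeads enriched the stained cells before FACS sorting into low and high (top ~1%) gates on anti-HA and streptavidin fluorescence. Each clone's polyreactivity label reflects its gate of origin.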
As for “QVQLVESGGGLVQAGGSLRLSCAASGRIFRGYLMGWYRQAPGKERELVAVITSGGRTYYADSVKGRFTISRDNAKNTVYLQMNSPKPEDTAVYYCATYPRYKPYYYWGQGTQVTVSS”, the “polyreactivity (PSR sort gate)” value is on record as “low polyreactivity”.

Turning to “QVQLVESGGGLVQAGGSLRLSCAASGRIFRGYTMGWYRTAPGKERELVAAISRSTGSTNYADSVKGRFTISRDNAKNTVYLQMNSLKPEDTAVYYCAAGPVDYGDWYYDVWFDYWGQGTQVTVSS”, the “polyreactivity (PSR sort gate)” value is on record as “high polyreactivity”.

Turning to “QVQLVESGGGLVQAGGSLRLSCAASGRIFRKYAMGWYRQAPGKERELVAAISVGGGSTRYADSEKGRFTISRDYAKYTVYLQMNSLKPEYTAVYYCAADWAYYVASYLYYTFDYWGQGTQVTVSS”, the “polyreactivity (PSR sort gate)” value was “low polyreactivity”.

For “QVQLVESGGGLVQAGGSLRLSCAASGRIFRKYAMGWYRQAPGTERELVATITLRGGSTYYADSVKGRFTISRDNGKNTVYLQMNSLKPEDTAVYYCATDITPAISVEYDYWGQGTQVTVSS”, the “polyreactivity (PSR sort gate)” value was “high polyreactivity”.

For “QVQLVESGGGLVQAGGSLRLSCAASGRIFRKYDMGWYRPAPGKERELVAAISGTGITYYADSVKGRFTISRDNAKNTVYLQMNSLKPEDTAVYYCARGSKPRAWSWAYPSATSIYDYWGQGTQVTVSS”, the “polyreactivity (PSR sort gate)” value is reported as “low polyreactivity”.

“QVQLVESGGGLVQAGGSLRLSCAASGRIFRLYAMGWYRQAPGKEREFVATITWIGGRTYYADSVTGRFTISRDNAKNTVYLQMNSLKPEDTAVYYCAADPGYTYEYWGQGTQVTVSS”: the “polyreactivity (PSR sort gate)” value is given as “low polyreactivity”.

On to “QVQLVESGGGLVQAGGSLRLSCAASGRIFRLYAMGWYRQAPGKERELVATITSGGTYYADSVKGRFTISRDNAKNTVYLQMNSLKPEDTAVYYCAADVYPGYVGSEEYDYWGQGTQETVSS”, for which the “polyreactivity (PSR sort gate)” value is “low polyreactivity”.

As to “QVQLVESGGGLVQAGGSLRLSCAASGRIFRLYAMGWYRQAPGKERELVATITSGGTYYADSVKGRFTISRDNAKNTVYLQMNSLKPEDTAVYYCTARRRLRYDYWGQGTQVTVSS”, the “polyreactivity (PSR sort gate)” value was “low polyreactivity”.

For “QVQLVESGGGLVQAGGSLRLSCAASGRIFRLYVMGWYRQAPGKERELVAAITRGGGTYYADSVKGRFTISRDNAKNTVYLQMNSLKPEDTAVYYCAVGTYTIYSGTLYDYKYYWGQGTQVTVSS”, the “polyreactivity (PSR sort gate)” value is on record as “low polyreactivity”.

As to “QVQLVESGGGLVQAGGSLRLSCAASGRIFRNYAMGWYRQAPGKERELVAAISYTTGSTYYADSVKGRFTISRDNAKNTVYLQMNSLKPEDTAVYYCATTDWYFKFYYWGQGTQVTVSS”, the “polyreactivity (PSR sort gate)” value is “high polyreactivity”.

Take “QVQLVESGGGLVQAGGSLRLSCAASGRIFRPYAMGWYRQAPGKERELVASISWRGSSTYYADSVKGRFTISRDNAKNTVYLQMNSLKPEDTAVYYCAARPYTLAFYRYGYWGQGTQVTVSS”: the “polyreactivity (PSR sort gate)” value is “high polyreactivity”.

On to “QVQLVESGGGLVQAGGSLRLSCAASGRIFRQNAMGWYRQAPGKERELVAAIDWNGTSTYADSVKGRFTISRDNAKNTVYLQMNSLKPEDTAVYYCNASESKPTFEYDYWGQGTQVTVSS”, for which the “polyreactivity (PSR sort gate)” value was “low polyreactivity”.

In the case of “QVQLVESGGGLVQAGGSLRLSCAASGRIFRQYAMGWYRQAPGKEREFVAGISTTGGSTYYADSVKGRFTISRDNAKNTVYLQMNSLKPEDTAVYYCAVRINWSRWYHYYTYNYWGQGTQVTVSS”, the “polyreactivity (PSR sort gate)” value was “high polyreactivity”.

Turning to “QVQLVESGGGLVQAGGSLRLSCAASGRIFRRNVMGWYRQAPGKERELLAAIRGTGSTTYADSVKGRFTISRDNAKNTVYLQMNSLKPEDTAVYYCNAYKGQTGGGGRYGYWGQGTQVTVSS”, the “polyreactivity (PSR sort gate)” value is “high polyreactivity”.

“QVQLVESGGGLVQAGGSLRLSCAASGRIFRRYAMGWYRQAPGKEREFVAAISYGGGSTYYADSVKGRFTISRDNAKNTVYLQMNSLKPEDTAVYYCNADEVVWGYNYWGQGTQVTVSS”: the “polyreactivity (PSR sort gate)” value was “low polyreactivity”.

“QVQLVESGGGLVQAGGSLRLSCAASGRIFRRYAMGWYRQAPGKERELVAAISSGGSTNYADSVKGRFTLSRDNAKNTVYLQMNSLKPEDTAVYYCAARRTATTSRAYYYWGQGNQVTVSS”: the “polyreactivity (PSR sort gate)” value was “high polyreactivity”.

As to “QVQLVESGGGLVQAGGSLRLSCAASGRIFRRYAMGWYRQAPGKERELVAAISSGGSTYYADSVKGRFTISRDNAKKTVYLQMNSLKPEDTAVYYCNAKVGAYLNYGYWGQGTQVTVSS”, the “polyreactivity (PSR sort gate)” value is reported as “low polyreactivity”.

As to “QVQLVESGGGLVQAGGSLRLSCAASGRIFRRYAMGWYRQAPGKERELVAAISSGGSTYYADSVKGRFTISRDNAKNTVYLQMNSLKPEDTAVYYCNAIVGAYLNYGYWGQGTQVTVSS”, the “polyreactivity (PSR sort gate)” value is “low polyreactivity”.

Regarding “QVQLVESGGGLVQAGGSLRLSCAASGRIFRRYAMGWYRQAPGKERELVAAITSGSSTNYADSVKGRFTISRDNAKNTVYLQMNSLKPEDTAVYYCNAKLRGYYYSRYNYWGQGTQVTVSS”, the “polyreactivity (PSR sort gate)” value is “high polyreactivity”.

In the case of “QVQLVESGGGLVQAGGSLRLSCAASGRIFRRYAMGWYRQAPGKERELVASISSGGSTNYADSVKGRFTISRDNAKNTVYLQMNSLKPEDTAVYYCNVYYGYFRSRYGYWGQGTQVTVSS”, the “polyreactivity (PSR sort gate)” value was “high polyreactivity”.

Regarding “QVQLVESGGGLVQAGGSLRLSCAASGRIFRSNAMGWYRQAPGKERELVAAINNRDTSTYADSVKGRFTISRDNAKNTVYLQMNSLKPEDTAVYYCAARYQYYSTYGVTLDYWGQGTQVTVSS”, the “polyreactivity (PSR sort gate)” value is reported as “low polyreactivity”.

Regarding “QVQLVESGGGLVQAGGSLRLSCAASGRIFRSNAMGWYRQAPRKERELVAVITTAGSTNYADSVKGRFTISRDNAKNTVYLQMNSLKQEDTAVYYCATENGTRKRRYDYWGQGTQVTVSS”, the “polyreactivity (PSR sort gate)” value is reported as “low polyreactivity”.

For the sequence “QVQLVESGGGLVQAGGSLRLSCAASGRIFRSNAMGWYSQAPGKERELVAAITLRGGSTFYADSVKGRFTISRDNAKNTVYLQMNSLKPEDTAVYYCAARSYWSRSIWSPYDYWGQGTQVTVSS”, the “polyreactivity (PSR sort gate)” value is “high polyreactivity”.

Consider “QVQLVESGGGLVQAGGSLRLSCAASGRIFRSNGMGWCRQAPGKERELVAVITPRSGTTSYADSVKGRFTISRDNAKNTVYLQRNSLKPEDTAVYYCAADSDWYPSPYDYWGQGTQVTVSS”, for which the “polyreactivity (PSR sort gate)” value was “high polyreactivity”.

For “QVQLVESGGGLVQAGGSLRLSCAASGRIFRSYAMGWYRQAPGKERELVAAITWGGGRTYYADSVKGRFTISRDNAKNTVYLQMNSLKPEDTAVYYCNTLAYPYYRGSKYDYWGQGTQVTVSS”, the “polyreactivity (PSR sort gate)” value is given as “high polyreactivity”.

For “QVQLVESGGGLVQAGGSLRLSCAASGRIFRSYAMGWYRQAPGKERELVAAITWSGGSTYYADSVKGRFTISRDNAKNTVYLQMDSLKPEDTAVYYCARVVTKKYSHTGYEYWGQGTQVTVSS”, the “polyreactivity (PSR sort gate)” value is “high polyreactivity”.

Turning to “QVQLVESGGGLVQAGGSLRLSCAASGRIFRSYAMGWYRQAPGKERELVADISISGGRTYYADSVKGRFTISRDNAKNTVYLQMNSLKPEDTAVYYCAARTYDRNRQLRRQWYDYWGQGTQVTVSS”, the “polyreactivity (PSR sort gate)” value is “high polyreactivity”.

With “QVQLVESGGGLVQAGGSLRLSCAASGRIFRSYVMGWYRQAPGKERELVAVISKNGGTTYYADSVKGRFTISRDNAKNTVYLQMNSLKPEDTAVYYCAADFRYRSQPGWGARRNGYYWGQGTQVTVSS”, the “polyreactivity (PSR sort gate)” value is recorded as “high polyreactivity”.

“QVQLVESGGGLVQAGGSLRLSCAASGRIFRTYAMGWYRQAPGKERELVAAISYSGGSTFYADSVKGRFTISRDNAKNTVYLQMNSLKPEDTAVYYCAADSRAKRYYWGQGTQVTVSS”: the “polyreactivity (PSR sort gate)” value is “high polyreactivity”.

“QVQLVESGGGLVQAGGSLRLSCAASGRIFRVNAMGRYRQAPGKERELVAAITRSGGSTYYADSVKGRFTISRDNAKNTVYLQRNSLKPEDTAVYYCNADPRLRQTRDYWGQGTQVTVSS”: the “polyreactivity (PSR sort gate)” value is given as “high polyreactivity”.

With “QVQLVESGGGLVQAGGSLRLSCAASGRIFRVNTMGWSRQAPGKERELVAAIRSSGTRPYYADSVKGRFTISRDHAKNTVYLQMNSLIPEDTAVYYCAAEHYWWYVFPSLWGEDDYWGQGTQVTVSS”, the “polyreactivity (PSR sort gate)” value is on record as “high polyreactivity”.

With “QVQLVESGGGLVQAGGSLRLSCAASGRIFRVYAMGWYRQEPGKERELVAGISFRGASTYYADSVKGRFTISRDNAKNTVYLQMNSLKPEDTAVYYCAAALPVQYRDMYSWGQGTQVTVSS”, the “polyreactivity (PSR sort gate)” value is “high polyreactivity”.

On to “QVQLVESGGGLVQAGGSLRLSCAASGRIFRVYAMGWYSQAPGKERELVASISSGGSTNYADSVKGRFTISRDNANNTVYLQMNSLKPEDTAVYYCAADRSGSFYKLDYWGQGTHVTVSS”, for which the “polyreactivity (PSR sort gate)” value is “low polyreactivity”.

As to “QVQLVESGGGLVQAGGSLRLSCAASGRIFRWNAMGWYRQAPGKERELVAVISSGGSTNYADSVKGRFTISRDNAKNTVYLQMNSLKPEDTAVYYCAKGLIRYSHLDYWGQGTQVTVSS”, the “polyreactivity (PSR sort gate)” value is on record as “low polyreactivity”.

For “QVQLVESGGGLVQAGGSLRLSCAASGRIFRWYAMGWYRQAPGKERELVAAITRSGSTTYYADSVKGRFTISRDNAKNAVYLQMNSLKPEDTAVSYSAAGYRGGYGWSVRMDYWGQGTQVTVSS”, the “polyreactivity (PSR sort gate)” value is “high polyreactivity”.

For “QVQLVESGGGLVQAGGSLRLSCAASGRIFRWYAMGWYRQAPGKERELVARITSGSSTYYADSVKGRFTISRDNAKNTVYLQMHSLKPEDTAVYYCATRTLQPGYTYPRYYWGQGTQVTVSS”, the “polyreactivity (PSR sort gate)” value is reported as “high polyreactivity”.

For the sequence “QVQLVESGGGLVQAGGSLRLSCAASGRIFRYKAMGGYRQAPGKEREFVAAISSSGGSTFYADSVKGRFTISRDNAKNTVYLQMNSLIPEDTAAYYCAADDAGFWYYYYGRYVTFDYWGQGTQVTVSS”, the “polyreactivity (PSR sort gate)” value is “low polyreactivity”.

In the case of “QVQLVESGGGLVQAGGSLRLSCAASGRIFRYNAMGWYRQAPGKERELVAAIRFSGGSTYYADSVKGRFTISRDNAKNTVYLQMNSLKPEYSAVYYCAKVYFRVQSGMDYWGQGTQVTVSS”, the “polyreactivity (PSR sort gate)” value was “low polyreactivity”.

“QVQLVESGGGLVQAGGSLRLSCAASGRIFRYNAMGWYRQAPGKERELVAAISGSGDRMYYADSVKGRFTISRDNAKNTVYFHMNSLKPEDTAVYYCAADVVWRQYGSWFYYWGQGTQVTVSS”: the “polyreactivity (PSR sort gate)” value is “high polyreactivity”.

Regarding “QVQLVESGGGLVQAGGSLRLSCAASGRIFRYNAMGWYRQAPGKERELVAAISRSGGSTYYADSVKGRFTISRDNAKNTVYLQINSLKPEDTAVYYCAVGSPYGGRAPWVRGGDYWGQGTQVTVSS”, the “polyreactivity (PSR sort gate)” value is “high polyreactivity”.
